The values that follow come from patent US20260218147, “CAS ENDONUCLEASE AND GUIDE RNA VARIANTS WITH IMPROVED EFFICIENCY” (PIONEER HI-BRED INTERNATIONAL, INC., published 2026).

In data set [1] the target is T1, Cas-alpha 10 variant M45S+F54D+G81E+G470D (synthetic construct, UniProt P0DW62 SEQ:1-497).
T1 chain: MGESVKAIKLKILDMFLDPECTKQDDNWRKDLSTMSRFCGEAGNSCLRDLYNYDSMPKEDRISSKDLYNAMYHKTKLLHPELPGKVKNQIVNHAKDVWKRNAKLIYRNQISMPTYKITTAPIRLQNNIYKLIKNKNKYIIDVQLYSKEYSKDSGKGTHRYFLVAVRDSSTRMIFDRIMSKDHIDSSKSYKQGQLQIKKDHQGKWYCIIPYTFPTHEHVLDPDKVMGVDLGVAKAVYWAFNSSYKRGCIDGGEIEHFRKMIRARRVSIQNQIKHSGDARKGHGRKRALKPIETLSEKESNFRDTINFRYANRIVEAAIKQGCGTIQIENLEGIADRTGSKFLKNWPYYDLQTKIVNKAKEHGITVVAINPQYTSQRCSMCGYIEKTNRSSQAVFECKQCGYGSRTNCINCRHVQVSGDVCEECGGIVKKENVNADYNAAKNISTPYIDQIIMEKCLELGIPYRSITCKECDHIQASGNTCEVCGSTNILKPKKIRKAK
In words: cell_activity; PAM GTTC; 37 C overnight. As to conditions: tags: SV40 NLS. Here is the method: (§1) K85Q was also predicted with AlphaFold to be involved in PAM recognition. Therefore, it was converted back to a K residue for M45S+F54D+G81E+K85Q+G470D (SEQ ID NO: 50) and T34E+M45S+F54D+G81E+K85Q+G470D (SEQ ID NO: 54) and re-tested using two ADE2 target sites. Testing was performed as described above and fold improvement in targeted DNA cleavage was calculated as described above, relative to the original protein.

Data set [2] deals with T2, Cas-alpha 10 base variant (synthetic construct, UniProt P0DW62 SEQ:1-497).
T2 chain: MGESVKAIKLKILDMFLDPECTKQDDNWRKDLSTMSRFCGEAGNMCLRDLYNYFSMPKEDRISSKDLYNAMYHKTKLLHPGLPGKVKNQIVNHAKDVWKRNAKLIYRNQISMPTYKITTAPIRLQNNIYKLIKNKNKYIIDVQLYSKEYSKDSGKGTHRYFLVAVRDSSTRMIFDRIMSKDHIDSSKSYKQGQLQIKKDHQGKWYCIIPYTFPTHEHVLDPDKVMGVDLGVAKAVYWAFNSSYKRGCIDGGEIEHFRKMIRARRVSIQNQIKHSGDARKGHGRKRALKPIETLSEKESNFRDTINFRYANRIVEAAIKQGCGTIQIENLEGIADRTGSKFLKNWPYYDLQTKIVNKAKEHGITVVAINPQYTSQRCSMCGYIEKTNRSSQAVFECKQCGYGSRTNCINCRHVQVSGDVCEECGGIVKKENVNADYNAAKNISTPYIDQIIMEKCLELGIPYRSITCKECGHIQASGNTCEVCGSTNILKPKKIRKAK
The experiment in a line: cell_activity; PAM GTTC; 37 C overnight. As to conditions: tags: SV40 NLS; chain copies: 2. Here is the method:
as §1

The target of data set [3] is T3, Cas-alpha 10 variant T34E+M45S+F54D+G81E+K85Q+G470D (synthetic construct, UniProt P0DW62 SEQ:1-497).
T3 chain: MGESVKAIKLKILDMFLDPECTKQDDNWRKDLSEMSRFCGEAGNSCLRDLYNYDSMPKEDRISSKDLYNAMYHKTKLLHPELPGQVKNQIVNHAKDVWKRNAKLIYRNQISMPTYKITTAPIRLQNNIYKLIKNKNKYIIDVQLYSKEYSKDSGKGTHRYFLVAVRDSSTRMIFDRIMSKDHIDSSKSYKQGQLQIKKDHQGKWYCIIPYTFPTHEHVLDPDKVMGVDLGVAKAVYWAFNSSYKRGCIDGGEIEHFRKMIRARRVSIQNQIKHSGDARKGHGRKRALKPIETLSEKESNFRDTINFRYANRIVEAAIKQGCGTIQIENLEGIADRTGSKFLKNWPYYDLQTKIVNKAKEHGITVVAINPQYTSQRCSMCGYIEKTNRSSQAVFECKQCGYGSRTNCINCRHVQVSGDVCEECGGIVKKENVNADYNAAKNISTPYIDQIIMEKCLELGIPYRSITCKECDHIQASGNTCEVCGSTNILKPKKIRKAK
The experiment in a line: cell_activity; PAM GTTC; 37 C overnight. Particulars: tags: SV40 NLS; chain copies: 2. Here is the method: as §1

Data set [4] has as its target T4, Cas-alpha 10 variant M45S+F54D+G81E+K85Q+G470D (synthetic construct, UniProt P0DW62 SEQ:1-497).
T4 chain: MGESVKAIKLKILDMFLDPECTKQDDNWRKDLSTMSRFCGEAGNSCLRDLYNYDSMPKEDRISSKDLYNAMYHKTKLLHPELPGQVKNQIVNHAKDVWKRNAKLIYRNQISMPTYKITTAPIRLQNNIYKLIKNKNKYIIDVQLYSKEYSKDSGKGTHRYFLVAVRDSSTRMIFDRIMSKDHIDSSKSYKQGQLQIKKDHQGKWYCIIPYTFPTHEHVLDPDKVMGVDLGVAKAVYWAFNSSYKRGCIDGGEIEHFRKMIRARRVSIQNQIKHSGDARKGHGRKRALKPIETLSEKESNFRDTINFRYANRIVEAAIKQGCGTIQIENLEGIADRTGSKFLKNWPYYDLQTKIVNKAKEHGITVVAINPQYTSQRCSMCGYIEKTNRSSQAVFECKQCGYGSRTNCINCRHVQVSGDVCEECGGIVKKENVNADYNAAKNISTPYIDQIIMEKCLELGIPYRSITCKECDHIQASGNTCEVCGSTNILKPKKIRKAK
The experiment in a line: cell_activity; PAM GTTC; 37 C overnight. As to conditions: tags: SV40 NLS; chain copies: 2. Here is the method:
as §1

Data set [5] addresses T5, Cas-alpha 10 variant T34E+M45S+F54D+G81E+G470D (synthetic construct, UniProt P0DW62 SEQ:1-497).
T5 chain: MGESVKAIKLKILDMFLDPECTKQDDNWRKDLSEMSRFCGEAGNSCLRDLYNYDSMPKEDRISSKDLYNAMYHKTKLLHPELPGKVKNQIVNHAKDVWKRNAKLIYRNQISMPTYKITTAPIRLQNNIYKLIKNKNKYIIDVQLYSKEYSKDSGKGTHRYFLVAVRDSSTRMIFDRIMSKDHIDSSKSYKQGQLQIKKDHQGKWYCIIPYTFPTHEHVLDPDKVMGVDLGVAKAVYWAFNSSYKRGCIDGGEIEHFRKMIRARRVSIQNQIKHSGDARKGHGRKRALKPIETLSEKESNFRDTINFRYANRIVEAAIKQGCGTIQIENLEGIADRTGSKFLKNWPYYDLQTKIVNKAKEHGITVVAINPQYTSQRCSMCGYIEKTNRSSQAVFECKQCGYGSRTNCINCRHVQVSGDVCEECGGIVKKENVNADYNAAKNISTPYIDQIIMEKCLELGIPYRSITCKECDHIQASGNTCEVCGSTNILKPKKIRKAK
The experiment in a line: cell_activity; PAM GTTC; 37 C overnight. Particulars: tags: SV40 NLS; chain copies: 2. Here is the method:
as §1

Data set [6] concerns the target T6, Cas-alpha 10 wild type (Cas12f) (Syntrophomonas palmitatica, UniProt P0DW62 SEQ:1-497).
T6 sequence: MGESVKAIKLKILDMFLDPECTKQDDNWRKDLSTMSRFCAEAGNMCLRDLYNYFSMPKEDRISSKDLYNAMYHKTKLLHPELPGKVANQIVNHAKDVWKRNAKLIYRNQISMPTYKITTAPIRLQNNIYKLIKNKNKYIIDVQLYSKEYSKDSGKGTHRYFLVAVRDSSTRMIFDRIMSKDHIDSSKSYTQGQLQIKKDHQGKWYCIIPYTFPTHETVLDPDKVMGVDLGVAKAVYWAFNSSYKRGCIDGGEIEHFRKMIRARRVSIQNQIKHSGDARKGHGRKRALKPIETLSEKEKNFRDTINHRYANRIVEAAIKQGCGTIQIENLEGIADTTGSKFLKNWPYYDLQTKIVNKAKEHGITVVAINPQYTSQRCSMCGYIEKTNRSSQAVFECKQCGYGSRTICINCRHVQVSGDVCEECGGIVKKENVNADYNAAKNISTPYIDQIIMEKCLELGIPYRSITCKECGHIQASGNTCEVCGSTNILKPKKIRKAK
In words: cell_activity; PAM GTTC; maize, 3x4 hr 45 C. Particulars: tags: SV40 NLS; chain copies: 2. Here is the method: (§2) The resulting T-DNA was then placed into LBA4404, a thymine auxotrophic strain of Agrobacterium tumefaciens, containing Vir9, a separate plasmid encoding the Bo542 virulence genes (US20170121722A1 and WO 2017/078836). The resulting Agrobacterium strain was then used to transform nine-to-ten-day old immature maize embryos (approximately 2 mm in size) by submersion in 700A liquid media containing the strain at an optical density (OD) of 0.4 to 2.0 at 550 nm for 5 min. and then removed from the media and placed on solid co-cultivation medium overnight at 21° C. in the dark. Following T-DNA delivery, embryos are transferred to resting media, 13266R, and grown in the dark at 28° C. for 5-7 days. Next, coleoptiles were removed, and embryos transferred to selection media for 11-16 days and kept in the dark at 28° C. They were then moved to maturation media and incubated for 14-25 days in the dark at 28° C. and then subject to light for 2-5 days. Next, they were moved to rooting media and incubated at 26-28° C. under light for 14-28 days refreshing media as needed. To examine Cas-alpha nuclease-guide RNA activity, transformed tissue was incubated at 28° C., standard for Agrobacterium transformation, or at a range of temperatures lower or higher than 28° C.
(§3) In a third study, the efficiency of targeted mutagenesis of Cas-alpha 10 endonuclease variants, SEQ ID NOs:14, 48, 60, and 157, were compared when tested with two sgRNA recognition domains, SEQ ID NOs:61 and 327, at two target sites, MS26 and D8. Experiments were carried-out in Zea mays using Agrobacterium (Agro) transformation as described in Example 2. Two temperature regimens were performed. The first subjected Agro transformed embryos (once per day) to 45° C. for 4 hrs on days 3, 4, and 5 (3×4 hr 45° C.) after infection and the second to a continuous incubation at 37° C. on days 1-3 (1-3d 37° C.) following infection. For both regimens, embryos were placed at 28° C. before and after temperature treatment. […]

Data set [7] concerns the target T7, Cas-alpha 10 variant G81E (synthetic construct, UniProt P0DW62 SEQ:1-497).
T7 chain: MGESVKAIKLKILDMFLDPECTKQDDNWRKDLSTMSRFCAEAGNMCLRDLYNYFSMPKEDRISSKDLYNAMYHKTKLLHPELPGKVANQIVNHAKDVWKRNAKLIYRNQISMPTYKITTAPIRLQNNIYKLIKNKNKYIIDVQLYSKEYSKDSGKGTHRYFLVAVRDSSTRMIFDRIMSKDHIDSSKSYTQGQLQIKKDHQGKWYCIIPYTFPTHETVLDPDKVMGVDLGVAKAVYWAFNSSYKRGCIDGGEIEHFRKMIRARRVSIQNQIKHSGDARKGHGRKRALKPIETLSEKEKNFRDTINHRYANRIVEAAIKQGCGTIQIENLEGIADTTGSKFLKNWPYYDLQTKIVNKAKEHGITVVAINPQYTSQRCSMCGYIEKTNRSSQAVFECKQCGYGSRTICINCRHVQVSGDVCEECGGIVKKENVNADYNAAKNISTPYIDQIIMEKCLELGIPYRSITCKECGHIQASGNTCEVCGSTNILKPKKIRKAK
The experiment in a line: cell_activity; PAM GTTC; maize, 3x4 hr 45 C. Particulars: tags: SV40 NLS; chain copies: 2. Here is the method: as §2, §3

B1: sgRNA ADE2-CR1 ; ADE2-CR1 target (ssRNA ; dsDNA)
RNA: AUUUACUCUGUUUCGCGCGCCAGGGCAGUUAGGUGCCCUAAAAGAGCGAAGUGGCCGAAAGGAAAGGCUAACGCUUCUCUAACGCUACGGCGACCUUGGCGAAAUGCCAUCAAUACCACGCGGCCCGAAAGGGUUCGCGCGAAACUGAGUAAUGAAAGUCGCAUCUUGCGUAAGCGCGUGGAUUGAAACCUACACUAAAGAAUCUUCAA
DNA 1: GTTCCTACACTAAAGAATCTTCAA
DNA 2: TTGAAGATTCTTTAGTGTAGGAAC
With B1, the activity was determined as 45.4 % red yeast in data set [1]; 2.76 % red yeast in data set [2]; 7.48 % red yeast in data set [3]; 5.19 % red yeast in data set [4]; 64.5 % red yeast in data set [5].

B2: sgRNA MS26 (recognition domain SEQ 327) ; MS26 target (ssRNA ; dsDNA)
RNA: GUUUCGCGCGCCAGGGCAGUUAGGUGCCCUAAAAGAGCGAAGUGGCCGAAAGGAAAGGCUAACGCUUCUCUAACGCUACGGCGACCUUGGCGAAAUGCCAUCAAUACCACGCGGCCCGAAAGGGUUCGCGCGAAACGAAAUAAGCGCGUGGAUUGAAACAAGUUCACGGCGUUCCAGGC
DNA 1: GTTCAAGTTCACGGCGTTCCAGGC
DNA 2: GCCTGGAACGCCGTGAACTTGAAC
Turning to B2, the activity in data set [6] was 4.67 % targeted mutagenesis; in data set [7], 15.5 % targeted mutagenesis.
